Tested on: K562 CRISPRi cells
Assay: Constant region variant library pooled growth screen, K562
Format: cell-based, human
Conditions: sgRNA constant region variants; activity relative to the original, un-modified constant region cr995
Procedure, shortened: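 Pooled library transduced into K562 CRISPRi cells in duplicate, puromycin-selected, grown at >2000× coverage and sampled after 4 to 8 days. Phenotypes per targeting sequence:constant region pair were normalized to the unmodified-scaffold pairing to give relative activity.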

B1: cr279 (nucleic acid)
guide: GTTTAAGAGCTAAGCTGGAAACAGCATAGCAAGTTTAAATAAGGCTAGTCCGTTATCAACTTGAAAAAGTGGCACCGAGCCGGTGCC
modifications: listed as DNA, chemistry not fully specified
B1 showed a Mean relative activity of 0.6783.

B2: cr962 (nucleic acid)
guide: GTTTAAGAGCTAAGCTGGAAACAGCATAGCAAGTTTAAATAAGGCTAGTCCGTTATCAACTTGAAAAAGTGGGACCCAGTGGGTCCT
modifications: listed as DNA, chemistry not fully specified
Molecule B2 has a Mean relative activity of 0.6733.

B3: cr273 (nucleic acid)
guide: GTTTAAGAGCTAAGCTGGAAACAGCATAGCAAGTTTAAATAAGTCTAGTACGTTATCAACTTGAGAAAGTGGCACCGAGTCGGTGCT
modifications: listed as DNA, chemistry not fully specified
B3 was tested, and the Mean relative activity was 0.6725.

B4: cr848 (nucleic acid)
guide: GTTTAAGAGCTAAGCTGGAAACAGCATAGCAAGTTTAAATAAGGCTAGTCCGTTATCAACTTGAGAAAGTGGCACCGGGTCGGTGCT
modifications: listed as DNA, chemistry not fully specified
Work on B4 yielded a Mean relative activity of 0.6714.

B5: cr840 (nucleic acid)
guide: GTTTAAGAGCTAAGCTGGAAACAGCATAGCAAGTTTAAATAAGGCTAGTCCGTTATCAACTTGAGAAAGTAGCACCGAGTCGGTGCT
modifications: listed as DNA, chemistry not fully specified
B5 showed a Mean relative activity of 0.6688.

B6: cr133 (nucleic acid)
guide: GTTTAAGAGCTAAGCTGGAAACAGCATAGCAAGTTTAAATAAGGCAAGCCCGTTATCAACTTGAAAAAGTGGCACCGAGTCGGTGCT
modifications: listed as DNA, chemistry not fully specified
B6 was tested, and the Mean relative activity was 0.6664.

B7: cr293 (nucleic acid)
guide: GTTTAAGAGCTAAGCTGGAAACAGCATAGCAAGTTTAAATAAGGCTAGTCCGTTATCAACTTGAAAAAGTGGGACCAAGTTGGTCCT
modifications: listed as DNA, chemistry not fully specified
For B7, the Mean relative activity was 1.052.

B8: cr699 (nucleic acid)
guide: GTTTAAGAGCTAAGCTGGAAACAGCATAGCAAGTTTAAATAAGGGTACTCCGTTATCAACGCGAAAGCGTGGCACCGAGTCGGTGCT
modifications: listed as DNA, chemistry not fully specified
Work on B8 yielded a Mean relative activity of 0.6628.

B9: cr815 (nucleic acid)
guide: GTTTAAGAGCTAAGCTGGAAACAGCATAGCAAGTTTAAATAAGGCTAGTCCGTTATCAACTTGAAAAAGTGGCACCGAGTCGATGCT
modifications: listed as DNA, chemistry not fully specified
Work on B9 yielded a Mean relative activity of 0.6583.

B10: cr667 (nucleic acid)
guide: GTTTAAGAGCTAAGCTGGAAACAGCATAGCAAGCTTAAATAAGGCTAGTCCGTTATCAACTCGAAAGAGTGGCACCGAGTCGGTGCT
modifications: listed as DNA, chemistry not fully specified
B10 showed a Mean relative activity of 0.6533.

B11: cr917 (nucleic acid)
guide: GTTTAAGAGCTAAGCTGGAAACAGCATAGCAAGTTTAAATAAGGTTAATCCGTTATCAACTTGAAAAAGTGGCATCTAGTAGATGCT
modifications: listed as DNA, chemistry not fully specified
With B11 the Mean relative activity was 0.6521.

B12: cr885 (nucleic acid)
guide: GTTTAAGAGCTAAGCTGGAAACAGCATAGCCAGTTTAAATAAGGCTAGTCCGTTATCAACTTGAAAAAGTTGCACCGAGTCGGTGCT
modifications: listed as DNA, chemistry not fully specified
In the case of B12, the Mean relative activity is reported as 0.6498.

B13: cr017 (nucleic acid)
guide: GTTTAGGAGCTAAGCTGGAAACAGCATAGCAAGTTTAAATAAGGCTAGTCCGTTATCAACTTGAAAAAGTGGCACCGAGTCGGTGCT
modifications: listed as DNA, chemistry not fully specified
Work on B13 yielded a Mean relative activity of 0.639.

B14: cr844 (nucleic acid)
guide: GTTTAAGAGCTAAGCTGGAAACAGCATAGCAAGTTTAAATAAGGCTAGTCCGTTATCAGCTTGAAAAAGCGGCATTGAGTCAATGCT
modifications: listed as DNA, chemistry not fully specified
B14 was tested, and the Mean relative activity was 0.6346.

B15: cr793 (nucleic acid)
guide: GTTTAAGAGCTAAGCTGGAAACAGCATAGCAAGTTTAAATAAGGCTAGTCCGTTATCAACTTGAAAAAGTGGCACCGAGTCGTTGCT
modifications: listed as DNA, chemistry not fully specified
B15 was tested, and the Mean relative activity was 0.6343.

B16: cr913 (nucleic acid)
guide: GTTTAAGAGCTAAGCTGGAAACAGCATAGCAAGTTTAAACAAGGCTAGTCCGTTATCAACTTGAAAAAGTGGCACCGAGTCGGTGCT
modifications: listed as DNA, chemistry not fully specified
With B16 the Mean relative activity was 0.633.

B17: cr213 (nucleic acid)
guide: GTTTAAGAGCTAAGCTGGAAACAGCATAACAAGTTTAAATAGGGCTAGTCCGTTATCAACTTGAGAAAGTGGCACCGAGTCGGTGCT
modifications: listed as DNA, chemistry not fully specified
Molecule B17 has a Mean relative activity of 0.6325.

B18: cr861 (nucleic acid)
guide: GTTTAAGAGCTAAGCTGGAAACAGCATAGCAAGTTTAAATAAGGCTAGTCCGTTAGCAACTTGAAAAAGTAGCACCGAGTCGGTGCT
modifications: listed as DNA, chemistry not fully specified
For B18, the Mean relative activity was 0.6319.

B19: cr026 (nucleic acid)
guide: GTTTGATAGCTAAGCTGGAAACAGCATAGCAAGTTTAAATAAGGCTAGTCCGTTATCAACTTGAAAAAGTGGCACCGAGTCGGTGCT
modifications: listed as DNA, chemistry not fully specified
In the case of B19, the Mean relative activity is reported as 0.6314.

B20: cr549 (nucleic acid)
guide: GTTTAAGAGCTAAGCTGGAAACAGCATAGCAAGTTTAAATAAGGCTAGTCCGTTATCAACCTGAAAAGGTGGCACCGAGTCGGTGCT
modifications: listed as DNA, chemistry not fully specified
In the case of B20, the Mean relative activity is reported as 1.051.

B21: cr001 (nucleic acid)
guide: ATTTAAGAGCTAAGCTGGAAACAGCATAGCAAGTTTAAATAAGGCTAGTCCGTTATCAACTTGAAAAAGTGGCACCGAGTCGGTGCT
modifications: listed as DNA, chemistry not fully specified
B21 showed a Mean relative activity of 0.6312.

B22: cr679 (nucleic acid)
guide: GTTTAAGAGCTAAGCTGGAAACAGCATATCAAGTTTAAATAAGGCTAGTCCGGTATCAACTTGAAAAAGTGGCACCGAGTCGGTGCT
modifications: listed as DNA, chemistry not fully specified
B22 gave a Mean relative activity of 0.6292.

B23: cr746 (nucleic acid)
guide: GTTTAAGAGCTAAGCTGGAAACAGCATAGCAAATTTAAATAAGGCTAGTCCGTTATCAACTTGACAAAGTGGCACCGAGTCGGTGCT
modifications: listed as DNA, chemistry not fully specified
In the case of B23, the Mean relative activity is reported as 0.629.

B24: cr406 (nucleic acid)
guide: GTTTAAGAGCTAAGCTGGAAACAGCATAGCAAGTTTAAATAAGGCTAGTCCGTTATTAACTTGAAAAAGTGGCACCGAGTCGGTGCT
modifications: listed as DNA, chemistry not fully specified
For B24, the Mean relative activity was 0.6285.

B25: cr189 (nucleic acid)
guide: GTTTAAGAGCTAAGCTGGAAACAGCATAGCAAGTTTAAATAAGGCTAGTCCGTTATCAACTTGAAAAAGTGGCACCAAGTCGGTGCT
modifications: listed as DNA, chemistry not fully specified
Molecule B25 has a Mean relative activity of 0.627.

B26: cr441 (nucleic acid)
guide: GTTTAAGAGCTAAGCTGGAAACAGCATAGCAAGTTTAAATAAGGCTAGTCCGTTATAAACTTGAAAAAGTGGCACCGAGTCGGTGCT
modifications: listed as DNA, chemistry not fully specified
For B26, the Mean relative activity was 0.622.

B27: cr442 (nucleic acid)
guide: GTTTAAGAGCTAAGCTGGAAACAGCATAGCAAGCTTAAATAAGGCTAGTCCGTTATCAACCTGAAAAGGTGGCACCGAGTCGGTGCT
modifications: listed as DNA, chemistry not fully specified
B27 showed a Mean relative activity of 0.6169.

B28: cr650 (nucleic acid)
guide: GTTTAAGAGCTAAGCTGGAAACAGCATAGCAAGTTTAAATAAGGCTAGTCCGTTATGAACTTGAAAAAGTGGCACCGAGTCGGTGCT
modifications: listed as DNA, chemistry not fully specified
With B28 the Mean relative activity was 0.6158.

B29: cr086 (nucleic acid)
guide: GTTTACTAGCTAAGCTGGAAACAGCATAGCAAGTTTAAATAAGGCTAGTCCGTTATCAACTTGAAAAAGTGGCACCGAGTCGGTGCT
modifications: listed as DNA, chemistry not fully specified
B29 gave a Mean relative activity of 0.614.

B30: cr937 (nucleic acid)
guide: GTTTAAGAGCTAAGCTGGAAACAGCATAGCAAGTTTAAATAAGGGTACTCCGTTATCAACTCGAAAGAGTGGCACAGAGTCTGTGCT
modifications: listed as DNA, chemistry not fully specified
For B30, the Mean relative activity was 0.6137.

B31: cr766 (nucleic acid)
guide: GTTTAAGAGCTAAGCTGGAAACAGCATAGCAAGTTTAAATAAGGCTAGTCCGTTATCAACATGAAAATGTGGCACCGAGTCGGTGCT
modifications: listed as DNA, chemistry not fully specified
With B31 the Mean relative activity was 1.051.

Reference: patent US20220259593A1, “CONTROL OF MAMMALIAN GENE DOSAGE USING CRISPR” (The Regents of the University of California, priority 2019, published 2022)
